Experimental data published in PMC3522052, “Association of HLA-DR1 with the allergic response to the major mugwort pollen allergen: molecular background” (BMC Immunology, 2012).

What was measured:
[1] = molecular target: HLA-DRB1*01:01 molecules (human (endogenous in homozygous EBV cells)); assay: ELISA
[2] = molecular target: HLA-DRB1*04:01 molecules (human (endogenous in homozygous EBV cells)); assay: ELISA
[3] = molecular target: T1, HLA-DRB1*01:01 (Homo sapiens, UniProt P01903+P01911, A100R/D57E/F55L/F60I/F76Y/I96L/L162R/M171V/P40L/Q125E/R42F/V115G/Y59C); assay: Peptide/MHC-binding assay, competitive ELISA against biotinylated HA306-318; conditions: for binding to DR1 molecules, in words: competition with HA306-318, stated for DR1 or DR4; for ratio of IC50 of Art v 1-peptides/HA306-318, HLA-DR1: relative binding activity, competitive ELISA, pH 6.0, 24 h at 37°C, two independent experiments
T1 construct: endogenous in cells
Experimental: (§1) HLA-DRB1*01:01 and -DRB1*04:01 molecules were purified from homozygous EBV cells by affinity chromatography using mAb L243 as described before. Peptide binding to HLA-DR molecules was assessed by competitive ELISA. Dilutions were prepared in 10 mM phosphate, 150 mM NaCl, […], 10 mM citrate (pH = 6.0). […] After 24 hours of incubation at 37°C, peptide/MHC-class II complexes were added to 96 well plates coated with L243 antibody and incubated at RT for 2 hours. Bound biotinylated peptides were detected by Streptavidin-alkaline phosphatase conjugate (GE healthcare, Saclay, France) and 4-methyl-umbelliferyl phosphate (Sigma-Aldrich, St. Quentin Fallavier, France) as substrate. Emitted fluorescence was measured at 450 nm upon excitation at 365 nm by a Gemini fluorometer (Molecular probes, St Grégoire, France). […] Two independent experiments were performed to evaluate competitive binding.

[4] = molecular target: T2, HLA-DRB1*04:01 (Homo sapiens, UniProt P01903+P01911, A100K/A169T/F76Y/I96L/K127E/L162R/M171V/N62H/P40V/Q125Y/R42H/S133A/S149N/S66Y/V115G/V209L/W38E); assay: as above; conditions: for binding to DR4 molecules, in words: competition with HA306-318, stated for DR1 or DR4; for ratio of IC50 of Art v 1-peptides/HA306-318, HLA-DR4: relative binding activity, competitive ELISA, pH 6.0, 24 h at 37°C, two independent experiments
T2 construct: endogenous in cells
Experimental: as §1

[5] = system: Art v 1_25-36-specific TCL and TCC with HLA-DR1-expressing APC; assay type: cell-based, human
Experimental: (§2) TCL or TCC (5 × 10^4 cells) were stimulated for 3 days with irradiated (60 Gy) APC and peptides at an optimum concentration of 3 μM, if not indicated otherwise. Proliferation was assessed by ^3H-thymidine uptake within the last 16 hours of incubation.

[6] = system: Art v 1_25-36-specific TCL and TCC with HLA-DR4-expressing APC; assay type: cell-based, human
Experimental: as §2

[7] = text statement for both HLA molecules

other [1]	other [2]	Molecule	ratio of IC50 of Art v 1-peptides/HA306-318, HLA-DR1 [3]	ratio of IC50 of Art v 1-peptides/HA306-318, HLA-DR4 [4]	further results
2020	756	Art v 1_(22-33) (peptide)	–	–	–
14	15	Art v 1_(25-36) (peptide)	–	–	–
16	3	Art v 1_(25-36) Ala-26 (peptide)	–	–	–
–	–	CDKKCIEWEKAQ [Art v 1_22-33]	2016	756	binding to DR1 molecules, in words [3]: weak; binding to DR4 molecules, in words [4]: weak
–	–	KAIEWEKAGHGA [Ala-26, mono-substituted peptide of Art v 1_25-36]	16	3	–
–	–	KCAEWEKAQHGA [Ala-27, mono-substituted peptide of Art v 1_25-36]	2596	>926	–
–	–	KCIAWEKAQHGA [Ala-28, mono-substituted peptide of Art v 1_25-36]	6	11	–
–	–	KCIEWAKAQHGA [Ala-30, mono-substituted peptide of Art v 1_25-36]	6	28	–
–	–	KCIEWEAAQHGA [Ala-31, mono-substituted peptide of Art v 1_25-36]	17	17	–
–	–	KCIEWEKAQAGA [Ala-34, mono-substituted peptide of Art v 1_25-36]	8	17	–
–	–	KCIEWEKAQHAA [Ala-35, mono-substituted peptide of Art v 1_25-36]	5	5	–
–	–	KCIEWEKAQHGA [Art v 1_25-36]	14	15	binding less than HA306-318, HLA-DR1 [3, 7]: 15 fold; binding less than HA306-318, HLA-DR4 [4, 7]: 15 fold; median proliferation of TCC, DR1 [5]: 36,640 dpm; median proliferation of TCL, DR1 [5]: 31,630 dpm; TCC that did not respond to presentation by DR4 [6]: 18%; TCC that recognized the peptide presented by DR4 [6]: 82%; median proliferation of TCC, DR4 [6]: 24,125 dpm; median proliferation of TCL, DR4 [6]: 25,985 dpm
–	–	KCIEWEKGQHGA [Gly-32, mono-substituted peptide of Art v 1_25-36]	63	149	–
–	–	NKKCDKKCIEWE [Art v 1_19–30]	>55032	>926	binding to DR1 molecules, in words [3]: negligible; binding to DR4 molecules, in words [4]: negligible
5	5	KCIEWEKAQHAA [Art v 1_(25-36) Ala-35]	–	–	–
63	149	KCIEWEKGQHGA [Art v 1_(25-36) Gly-32]	–	–	–
6	11	KCIAWEKAQHGA [Art v 1_(25-36) Ala-28]	–	–	–
17	17	KCIEWEAAQHGA [Art v 1_(25-36) Ala-31]	–	–	–
6	28	KCIEWAKAQHGA [Art v 1_(25-36) Ala-30]	–	–	–
8	17	KCIEWEKAQAGA [Art v 1_(25-36) Ala-34]	–	–	–
2600	–	KCAEWEKAQHGA [Art v 1_(25-36) Ala-27]	–	–	–
